These binders were tested against human plasma fibronectin (human, UniProt P02751-8 32-2296, limits assumed) (assay: Western blot, biotin-tagged nanobody).
human plasma fibronectin, sequence (P02751 other isoform, or with tags, fused parts or gaps limits assumed): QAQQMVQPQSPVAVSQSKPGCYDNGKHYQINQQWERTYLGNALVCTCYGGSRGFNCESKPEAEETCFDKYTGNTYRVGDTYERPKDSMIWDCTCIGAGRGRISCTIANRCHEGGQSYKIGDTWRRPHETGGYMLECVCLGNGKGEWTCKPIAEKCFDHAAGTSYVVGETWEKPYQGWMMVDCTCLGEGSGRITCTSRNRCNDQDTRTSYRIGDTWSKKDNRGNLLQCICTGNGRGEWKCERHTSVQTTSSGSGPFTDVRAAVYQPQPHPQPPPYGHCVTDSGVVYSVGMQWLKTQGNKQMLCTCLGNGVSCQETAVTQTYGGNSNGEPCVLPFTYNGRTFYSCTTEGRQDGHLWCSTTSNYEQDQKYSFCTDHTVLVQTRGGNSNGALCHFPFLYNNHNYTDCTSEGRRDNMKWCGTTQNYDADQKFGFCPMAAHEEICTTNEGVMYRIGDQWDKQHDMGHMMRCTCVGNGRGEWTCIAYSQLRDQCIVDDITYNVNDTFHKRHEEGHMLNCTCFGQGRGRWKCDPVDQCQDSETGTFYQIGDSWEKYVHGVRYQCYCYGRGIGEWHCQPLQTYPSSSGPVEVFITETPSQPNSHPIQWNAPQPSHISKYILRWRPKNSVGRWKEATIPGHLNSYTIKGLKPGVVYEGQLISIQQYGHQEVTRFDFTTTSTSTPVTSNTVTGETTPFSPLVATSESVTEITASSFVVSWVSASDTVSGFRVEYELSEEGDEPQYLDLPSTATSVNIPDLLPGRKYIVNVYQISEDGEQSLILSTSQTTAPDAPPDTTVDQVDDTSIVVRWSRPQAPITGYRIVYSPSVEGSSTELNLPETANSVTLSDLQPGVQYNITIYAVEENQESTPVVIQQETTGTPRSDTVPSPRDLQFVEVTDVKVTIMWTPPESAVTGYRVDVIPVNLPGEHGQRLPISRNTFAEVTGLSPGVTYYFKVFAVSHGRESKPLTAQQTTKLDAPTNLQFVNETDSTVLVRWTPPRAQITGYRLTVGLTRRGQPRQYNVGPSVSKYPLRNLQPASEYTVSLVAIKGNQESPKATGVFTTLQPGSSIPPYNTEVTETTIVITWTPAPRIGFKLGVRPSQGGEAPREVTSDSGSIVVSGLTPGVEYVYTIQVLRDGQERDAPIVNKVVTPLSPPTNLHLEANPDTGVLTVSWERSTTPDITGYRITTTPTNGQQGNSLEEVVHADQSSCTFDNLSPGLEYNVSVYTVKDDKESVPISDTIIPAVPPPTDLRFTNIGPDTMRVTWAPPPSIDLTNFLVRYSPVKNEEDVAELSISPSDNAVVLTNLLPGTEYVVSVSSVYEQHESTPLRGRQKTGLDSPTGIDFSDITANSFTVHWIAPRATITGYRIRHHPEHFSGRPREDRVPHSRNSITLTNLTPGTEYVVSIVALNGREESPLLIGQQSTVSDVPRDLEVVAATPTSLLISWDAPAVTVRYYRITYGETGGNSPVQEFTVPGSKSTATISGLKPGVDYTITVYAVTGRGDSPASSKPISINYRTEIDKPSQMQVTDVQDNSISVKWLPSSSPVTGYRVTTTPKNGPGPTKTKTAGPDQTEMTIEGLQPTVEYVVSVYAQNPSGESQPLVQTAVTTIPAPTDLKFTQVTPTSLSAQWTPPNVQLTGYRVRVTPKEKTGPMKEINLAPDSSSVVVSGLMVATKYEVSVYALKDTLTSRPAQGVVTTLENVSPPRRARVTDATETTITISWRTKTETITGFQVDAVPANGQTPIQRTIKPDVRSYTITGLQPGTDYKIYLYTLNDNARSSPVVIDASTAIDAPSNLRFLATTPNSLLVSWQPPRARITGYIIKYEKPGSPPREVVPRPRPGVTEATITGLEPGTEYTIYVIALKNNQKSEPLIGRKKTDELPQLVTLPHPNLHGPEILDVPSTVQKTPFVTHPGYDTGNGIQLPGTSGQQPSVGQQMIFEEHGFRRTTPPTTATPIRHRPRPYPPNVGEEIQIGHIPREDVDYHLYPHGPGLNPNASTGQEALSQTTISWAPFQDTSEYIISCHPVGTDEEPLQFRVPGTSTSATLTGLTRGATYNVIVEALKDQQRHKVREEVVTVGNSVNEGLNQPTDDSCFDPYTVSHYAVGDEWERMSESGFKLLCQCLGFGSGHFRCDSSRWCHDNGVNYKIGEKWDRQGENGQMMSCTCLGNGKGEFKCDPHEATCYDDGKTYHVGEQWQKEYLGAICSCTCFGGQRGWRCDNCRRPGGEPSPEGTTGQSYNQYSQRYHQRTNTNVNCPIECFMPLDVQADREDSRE

Binder	binding result
LMJ1.2C (VHH, sortase-tagged with biotin in the Western blots ; Purified by a his-tag for BLI and sortase-tagged with biotin in the Western blots. The tag letters are not stated for the free nanobody, so they are left out., First round of yeast display; Expressed in E. coli, his-tag purified) VHH: QVQLVETGGGLVQAGGSLRLSCAASGSTFSHSAGGWYRQAPEKQRELVAGIRSDGNINYADSVKDRFTISRDNASNTMYLQMNNLKPEDTAVYVCNIRGSYGNTYYSRWGQGTQVTVSS	no binding
LMJ1.3J (VHH, sortase-tagged with biotin in the Western blots ; Purified by a his-tag for BLI and sortase-tagged with biotin in the Western blots. The tag letters are not stated for the free nanobody, so they are left out., First round of yeast display; Expressed in E. coli, his-tag purified) VHH: QVQLVGTGGGLVQAGGSLRLSCAASGSTFSHSAGGWYRQAPEKQRELVAGISSAGNINYADSVKDRFTISRDNASNTMYLQMNNLKPEDTAVYVCNIRGSYGNTYYSRWGQGTQVTVSS	no binding
LMJ2.6A (VHH, sortase-tagged with biotin in the Western blots ; Purified by a his-tag for BLI and sortase-tagged with biotin in the Western blots. The tag letters are not stated for the free nanobody, so they are left out., Second round of yeast display; Expressed in E. coli, his-tag purified) VHH: RVQLVETGGGLVQAGGSLRLSCAVSGRTFSHSAGGWYRQAPEKQRELVAGIRSDGNINYADSVKDRFTISRDNASNTMYLQMNNLKPGDTAVYVCNIRGSYGNTYYSRWGQGTQVTVSS	no binding
LMJ2.5I (VHH, sortase-tagged with biotin in the Western blots ; Purified by a his-tag for BLI and sortase-tagged with biotin in the Western blots. The tag letters are not stated for the free nanobody, so they are left out., Second round of yeast display; Expressed in E. coli, his-tag purified) VHH: RVQLVETGGGLVQAGGSLRLSCAVSGSTFSHSAGGWYRQAPEKQRELVAGIRSDGNINYADSVKDRFTISRDNASNTMYLQMNNLKPEDTAVYVCNIRGSYGNTYYSRWGQGAQVTVSS	no binding
LMJ2.4C (VHH, sortase-tagged with biotin in the Western blots ; Purified by a his-tag for BLI and sortase-tagged with biotin in the Western blots. The tag letters are not stated for the free nanobody, so they are left out., Second round of yeast display; Expressed in E. coli, his-tag purified) VHH: QVQLVEAGGGLVQAGGSLRLSCAASGSTFSHSAGGWYRQAPEKQRELVAGIRSDGNINYADSVKDRFTISRDNASNTMYLQMNNLKPEDTAVYVCNIRGSYGNTYYSRWGQGIQVTVSS	no binding
LMJ2.5C (VHH, sortase-tagged with biotin in the Western blots ; Purified by a his-tag for BLI and sortase-tagged with biotin in the Western blots. The tag letters are not stated for the free nanobody, so they are left out., Second round of yeast display; Expressed in E. coli, his-tag purified) VHH: QVQLVETGGGLVQAGGSLRLSCAASGSTFSHSAGGWYRQAPEKQRELVAGVRSDGNINYADSVKDRFTISRDNASNTMYLQMNNLKPEDTAVYVCNIRGSYGNTYYSRWGQGIQVTVSS	no binding

Continued, values first:

binding result	Binder
no binding	LMJ2.5J (VHH, sortase-tagged with biotin in the Western blots ; Western blots used the nanobody sortase-tagged with biotin at a terminus. The BLI material was his-tag purified. Tag letters are not stated for the stand-alone nanobody and are left out., Second round of yeast display; Expressed in E. coli, his-tag purified) VHH: QVQLVETRGGLVQAGGSLRLSCAVSGSTFSHSAGGWYRQAPEKQRELVAGIGSAGNINYADSVKDRFTISRDNASNTMYLQMNNLKPEDTAVYVCNIRGSYGNTYYSRWGQGTQVTVSS
no binding	LMJ2.5H (VHH, sortase-tagged with biotin in the Western blots ; Western blots used the nanobody sortase-tagged with biotin at a terminus. The BLI material was his-tag purified. Tag letters are not stated for the stand-alone nanobody and are left out., Second round of yeast display; Expressed in E. coli, his-tag purified) VHH: QVQLVETGGGLVQAGGSLRLSCAVSGSTFSHSAGGWYRQAPEKQRELVAGIRSDGNINYADSVKDRFTISRDNASNTMYLQMNNLKPEDTAVYVCNIRGSYGNTYYSRWGQGTQVTVSS
no binding	LMJ2.5G (VHH, sortase-tagged with biotin in the Western blots ; Western blots used the nanobody sortase-tagged with biotin at a terminus. The BLI material was his-tag purified. Tag letters are not stated for the stand-alone nanobody and are left out., Second round of yeast display; Expressed in E. coli, his-tag purified) VHH: QVQLVETEGGLVQAGGSLRLSCAASGSTFSHSAGGWYRQAPEKQRELVAGIRSDGNINYADSVKDRFTISRDNASNTMYLQMNNLKPEDTAVYVCNIRGSYGNTYYSRWGQGTQVTVSS
no binding	LMJ1.2G (VHH, sortase-tagged with biotin in the Western blots ; Purified by a his-tag for BLI and sortase-tagged with biotin in the Western blots. The tag letters are not stated for the free nanobody, so they are left out., First round of yeast display; Expressed in E. coli, his-tag purified) VHH: QVQLVETGGGLVQAGGSLRLSCAASGSTFSHSAGGWYRQAPEKQRELVAGIGSDGNINYADSVKDRFTISRDNASNTMYLQMNNLKPEDTAVYVCNIRGSYGNTYYSRWGQGTQVTVSS
